{
  "source": "patent US20230121775A1",
  "about": "(AMUNIX PHARMACEUTICALS, published 2023)",
  "binders": {"B1": {"name": "CD3.9 scFv (parental anti-CD3 scFv) (scFv)", "scFv": "ELVVTQEPSLTVSPGGTVTLTCRSSTGAVTTSNYANWVQQKPGQAPRGLIGGTNKRAPGTPARFSGSLLGGKAALTLSGVQPEDEAEYYCALWYSNLWVFGGGTKLTVLGATPPETGAETESPGETTGGSAESEPPGEGEVQLLESGGGLVQPGGSLKLSCAASGFTFNTYAMNWVRQAPGKGLEWVARIRSKYNNYATYYADSVKDRFTISRDDSKNTAYLQMNNLKTEDTAVYYCVRHGNFGNSYVSWFAYWGQGTLVTVSS", "notes": "VL-linker-VH scFv; also called hCD3.9; aCD3.9"}, "B2": {"name": "CD3.25 scFv (scFv)", "scFv": "B1 scFv with L10H, T31S, N54I, S95P, L150I, A220V, G241E, Y253H", "notes": "VL-linker-VH scFv"}, "B3": {"name": "CD3.24 scFv (scFv)", "scFv": "B1 scFv with T26N, A28E, N54I, E87V, S95P, L150I, A220V, G241E, Y253H", "notes": "VL-linker-VH scFv"}, "B4": {"name": "CD3.26 scFv (scFv)", "scFv": "B1 scFv with L10H, A28E, N54I, S95P, L150I, A220V, G241E, Y253H", "notes": "VL-linker-VH scFv"}, "B5": {"name": "CD3.23 scFv (scFv)", "scFv": "B1 scFv with T26N, T31S, E87V, S95P, L150I, A220V, G241E, Y253H", "notes": "VL-linker-VH scFv; also called hCD3.23; aCD3.23"}},
  "note": "Where a chain is given by its changes, count along the chain named.",
  "data": [
    {"biological_target": "Biotinylated CD3(Eµ antigen (Creative Biomart) (UniProt P07766 23-126, biotinylated (site not stated)))", "sequence (P07766 23-126)": "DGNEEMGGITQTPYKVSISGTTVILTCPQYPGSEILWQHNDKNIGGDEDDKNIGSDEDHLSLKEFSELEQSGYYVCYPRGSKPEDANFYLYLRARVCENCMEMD", "assay": "BLI (ForteBio BLItz), biotinylated CD3 antigen on streptavidin biosensor, scFv in solution", "units": {"Kd": "nM"}, "values": [
      {"binder": "B1", "Kd": 75},
      {"binder": "B2", "Kd": 215},
      {"binder": "B3", "Kd": 296},
      {"binder": "B4", "Kd": 221},
      {"binder": "B5", "Kd": 175}
    ]}
  ]
}
